Test results taken from patent US20260242735A1 (UNIVERSIT T BASEL, published 2026).

Experiments:
Assay in all cases: flow cytometry, transfected cells, IgG;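 further: CD33 point mutants transiently expressed in HEK293-T cells, antibody binding read by fluorescence, background subtracted and normalized to wild-type CD33 as 100%, duplicates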
human CD33 V56R = human CD33 V56R (human, UniProt P20138 18-364)
Protocol: (§1) An alanine scan on human CD33 was performed to the determine the residues on CD33 that are involved in binding to the antibodies investigated. […] Briefly, a mutation library of CD33 was created by high-throughput, site-directed mutagenesis. Each residue was individually mutated to alanine, with alanine codons mutated to serine. The mutant library was arrayed in 384-well microplates and transiently transfected into HEK293-T. Following transfection, cells were incubated with the indicated antibodies (IgG or Fab) at concentrations pre-determined using an independent immunofluorescence titration curve on wild type CD33. […] Binding of each antibody to each mutant clone was determined in duplicates. For each point, background fluorescence was subtracted from the raw data, which were then normalized to antibody reactivity with wild type CD33.
(§2) Antibodies were screened for binding to the human CD33 variants in IgG format. […] For each mutation, background fluorescence was subtracted from the raw data, which were then normalized to antibody reactivity with wild-type CD33.

human CD33 L134Q = human CD33 L134Q (human, UniProt P20138 18-364)
Protocol: as §1, §2

human CD33 R122F = human CD33 R122F (human, UniProt P20138 18-364)
Protocol: as §1, §2

human CD33 M120I = human CD33 M120I (human, UniProt P20138 18-364)
Protocol: as §1, §2

human CD33 R122S = human CD33 R122S (human, UniProt P20138 18-364)
Chain of human CD33 R122S (P20138 18-364 R122S limits assumed): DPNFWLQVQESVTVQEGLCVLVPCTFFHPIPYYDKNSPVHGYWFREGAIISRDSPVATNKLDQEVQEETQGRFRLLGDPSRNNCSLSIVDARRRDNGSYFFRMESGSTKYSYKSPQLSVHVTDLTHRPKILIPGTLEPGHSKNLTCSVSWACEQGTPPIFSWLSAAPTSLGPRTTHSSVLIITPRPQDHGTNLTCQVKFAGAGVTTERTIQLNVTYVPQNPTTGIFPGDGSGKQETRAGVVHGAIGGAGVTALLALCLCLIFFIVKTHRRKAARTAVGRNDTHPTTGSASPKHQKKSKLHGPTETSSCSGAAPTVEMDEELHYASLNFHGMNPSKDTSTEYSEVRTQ
Protocol: as §1, §2

human CD33 L134T = human CD33 L134T (human, UniProt P20138 18-364)
Chain of human CD33 L134T (P20138 18-364 L134T limits assumed): as the sequence (P20138 18-364 R122S limits assumed) above, with S105R, L117T counted along it
Protocol: as §1, §2

human CD33 Y127R = human CD33 Y127R (human, UniProt P20138 18-364)
Chain of human CD33 Y127R (P20138 18-364 Y127R limits assumed): as the sequence (P20138 18-364 R122S limits assumed) above, with S105R, Y110R counted along it
Protocol: as §1, §2

human CD33 K52T = human CD33 K52T (human, UniProt P20138 18-364)
Protocol: as §1, §2

human CD33 K52L = human CD33 K52L (human, UniProt P20138 18-364)
Protocol: as §1, §2

human CD33 L134I = human CD33 L134I (human, UniProt P20138 18-364)
Chain of human CD33 L134I (P20138 18-364 L134I limits assumed): as the sequence (P20138 18-364 R122S limits assumed) above, with S105R, L117I counted along it
Protocol: as §1, §2

human CD33 S131T = human CD33 S131T (human, UniProt P20138 18-364)
Protocol: as §1, §2

human CD33 R122G = human CD33 R122G (human, UniProt P20138 18-364)
Chain of human CD33 R122G (P20138 18-364 R122G limits assumed): as the sequence (P20138 18-364 R122S limits assumed) above, with S105G counted along it
Protocol: as §1, §2

human CD33 S131Y = human CD33 S131Y (human, UniProt P20138 18-364)
Chain of human CD33 S131Y (P20138 18-364 S131Y limits assumed): as the sequence (P20138 18-364 R122S limits assumed) above, with S105R, S114Y counted along it
Protocol: as §1, §2

human CD33 S131Q = human CD33 S131Q (human, UniProt P20138 18-364)
Protocol: as §1, §2

human CD33 S131I = human CD33 S131I (human, UniProt P20138 18-364)
Protocol: as §1, §2

human CD33 P132T = human CD33 P132T (human, UniProt P20138 18-364)
Protocol: as §1, §2

human CD33 P132D = human CD33 P132D (human, UniProt P20138 18-364)
Protocol: as §1, §2

human CD33 P132F = human CD33 P132F (human, UniProt P20138 18-364)
Protocol: as §1, §2

human CD33 P132N = human CD33 P132N (human, UniProt P20138 18-364)
Chain of human CD33 P132N (P20138 18-364 P132N limits assumed): as the sequence (P20138 18-364 R122S limits assumed) above, with S105R, P115N counted along it
Protocol: as §1, §2

human CD33 K52S = human CD33 K52S (human, UniProt P20138 18-364)
Chain of human CD33 K52S (P20138 18-364 K52S limits assumed): as the sequence (P20138 18-364 R122S limits assumed) above, with K35S, S105R counted along it
Protocol: as §1, §2

human CD33 R122E = human CD33 R122E (human, UniProt P20138 18-364)
Chain of human CD33 R122E (P20138 18-364 R122E limits assumed): as the sequence (P20138 18-364 R122S limits assumed) above, with S105E counted along it
Protocol: as §1, §2

human CD33 K52H = human CD33 K52H (human, UniProt P20138 18-364)
Protocol: as §1, §2

human CD33 D51N = human CD33 D51N (human, UniProt P20138 18-364)
Chain of human CD33 D51N (P20138 18-364 D51N limits assumed): as the sequence (P20138 18-364 R122S limits assumed) above, with D34N, S105R counted along it
Protocol: as §1, §2

human CD33 Y129S = human CD33 Y129S (human, UniProt P20138 18-364)
Protocol: as §1, §2

human CD33 D51K = human CD33 D51K (human, UniProt P20138 18-364)
Protocol: as §1, §2

human CD33 S131N = human CD33 S131N (human, UniProt P20138 18-364)
Protocol: as §1, §2

human CD33 P132V = human CD33 P132V (human, UniProt P20138 18-364)
Protocol: as §1, §2

human CD33 L134M = human CD33 L134M (human, UniProt P20138 18-364)
Protocol: as §1, §2

human CD33 P132H = human CD33 P132H (human, UniProt P20138 18-364)
Protocol: as §1, §2

human CD33 Y127E = human CD33 Y127E (human, UniProt P20138 18-364)
Protocol: as §1, §2

human CD33 K52Y = human CD33 K52Y (human, UniProt P20138 18-364)
Chain of human CD33 K52Y (P20138 18-364 K52Y limits assumed): as the sequence (P20138 18-364 R122S limits assumed) above, with K35Y, S105R counted along it
Protocol: as §1, §2

human CD33 L134F = human CD33 L134F (human, UniProt P20138 18-364)
Protocol: as §1, §2

human CD33 M120L = human CD33 M120L (human, UniProt P20138 18-364)
Protocol: as §1, §2

human CD33 P132L = human CD33 P132L (human, UniProt P20138 18-364)
Chain of human CD33 P132L (P20138 18-364 P132L limits assumed): as the sequence (P20138 18-364 R122S limits assumed) above, with S105R, P115L counted along it
Protocol: as §1, §2

human CD33 M120V = human CD33 M120V (human, UniProt P20138 18-364)
Protocol: as §1, §2

human CD33 K52G = human CD33 K52G (human, UniProt P20138 18-364)
Protocol: as §1, §2

human CD33 P132K = human CD33 P132K (human, UniProt P20138 18-364)
Protocol: as §1, §2

human CD33 P132S = human CD33 P132S (human, UniProt P20138 18-364)
Chain of human CD33 P132S (P20138 18-364 P132S limits assumed): as the sequence (P20138 18-364 R122S limits assumed) above, with S105R, P115S counted along it
Protocol: as §1, §2

Chain of human CD33 L134Q (P20138 18-364 L134Q limits assumed): as the sequence (P20138 18-364 R122S limits assumed) above, with S105R, L117Q counted along it

Binder | Mean % WT Binding (human CD33 V56R) [%] | Mean % WT Binding (human CD33 L134Q) [%] | Mean % WT Binding (human CD33 R122F) [%] | Mean % WT Binding (human CD33 M120I) [%] | Mean % WT Binding (human CD33 R122S) [%] | Mean % WT Binding (human CD33 L134T) [%] | Mean % WT Binding (human CD33 Y127R) [%] | Mean % WT Binding (human CD33 K52T) [%] | Mean % WT Binding (human CD33 K52L) [%] | Mean % WT Binding (human CD33 L134I) [%] | Mean % WT Binding (human CD33 S131T) [%] | Mean % WT Binding (human CD33 R122G) [%] | Mean % WT Binding (human CD33 S131Y) [%] | Mean % WT Binding (human CD33 S131Q) [%] | Mean % WT Binding (human CD33 S131I) [%] | Mean % WT Binding (human CD33 P132T) [%] | Mean % WT Binding (human CD33 P132D) [%] | Mean % WT Binding (human CD33 P132F) [%] | Mean % WT Binding (human CD33 P132N) [%] | Mean % WT Binding (human CD33 K52S) [%] | other results
Refmab #5 (antibody, human IgG1, V domains shown) VH: QVQLVQSGAEVKKPGASVKVSCKASGYTFTNYDINWVRQAPGQGLEWIGWIYPGDGSTKYNEKFKAKATLTADTSTSTAYMELRSLRSDDTAVYYCASGYEDAMDYWGQGTTVTVSS VL: DIQMTQSPSSLSASVGDRVTINCKASQDINSYLSWFQQKPGKAPKTLIYRANRLVDGVPSRFSGSGSGQDYTLTISSLQPEDFATYYCLQYDEFPLTFGGGTKVEIK | 87.4 | 62.2 | 90.1 | 93 | 90.6 | 96.5 | 108 | 5 | 2.2 | 92.9 | 89 | 94.9 | 89.5 | 80.6 | 84.8 | 93.1 | 90.5 | 68.5 | 101 | 3.8 | Mean % WT Binding (human CD33 R122E): 95.8%; Mean % WT Binding (human CD33 K52H): 59.7%; Mean % WT Binding (human CD33 D51N): 89.4%; Mean % WT Binding (human CD33 Y129S): 94.7%; Mean % WT Binding (human CD33 D51K): 4.2%; Mean % WT Binding (human CD33 S131N): 101%; Mean % WT Binding (human CD33 P132V): 86.9%; Mean % WT Binding (human CD33 L134M): 86.1%; Mean % WT Binding (human CD33 P132H): 88.2%; Mean % WT Binding (human CD33 Y127E): 93.9%; Mean % WT Binding (human CD33 K52Y): 2%; Mean % WT Binding (human CD33 L134F): 102%; Mean % WT Binding (human CD33 M120L): 103%; Mean % WT Binding (human CD33 P132L): 89.6%; Mean % WT Binding (human CD33 M120V): 85.9%; Mean % WT Binding (human CD33 K52G): 2.6%; Mean % WT Binding (human CD33 P132K): 97.1%; Mean % WT Binding (human CD33 P132S): 105%
Refmab #6 (antibody, human IgG1, V domains shown) VH: QVQLQQPGAEVVKPGASVKMSCKASGYTFTSYYIHWIKQTPGQGLEWVGVIYPGNDDISYNQKFQGKATLTADKSSTTAYMQLSSLTSEDSAVYYCAREVRLRYFDVWGQGTTVTVSS VL: EIVLTQSPGSLAVSPGERVTMSCKSSQSVFFSSSQKNYLAWYQQIPGQSPRLLIYWASTRESGVPDRFTGSGSGTDFTLTISSVQPEDLAIYYCHQYLSSRTFGQGTKLEIK | 93.2 | 47.1 | 92.5 | 102 | 108 | 88.4 | 108 | 106 | 99.4 | 89.4 | 99.5 | 112 | 24.5 | 18.9 | 24 | 11.7 | 87.6 | 1.6 | 2.2 | 107 | Mean % WT Binding (human CD33 R122E): 96%; Mean % WT Binding (human CD33 K52H): 86.1%; Mean % WT Binding (human CD33 D51N): 92.6%; Mean % WT Binding (human CD33 Y129S): 99.6%; Mean % WT Binding (human CD33 D51K): 77.7%; Mean % WT Binding (human CD33 S131N): 84.6%; Mean % WT Binding (human CD33 P132V): 84.6%; Mean % WT Binding (human CD33 L134M): 99.5%; Mean % WT Binding (human CD33 P132H): 86.6%; Mean % WT Binding (human CD33 Y127E): 102%; Mean % WT Binding (human CD33 K52Y): 26.3%; Mean % WT Binding (human CD33 L134F): 90.7%; Mean % WT Binding (human CD33 M120L): 101%; Mean % WT Binding (human CD33 P132L): 6.1%; Mean % WT Binding (human CD33 M120V): 97%; Mean % WT Binding (human CD33 K52G): 105%; Mean % WT Binding (human CD33 P132K): 2.2%; Mean % WT Binding (human CD33 P132S): 3.2%
